In patent publication US20240010730A1 (SHANGHAI HUAOTA BIOPHARMACEUTICAL, published 2024):
Like-named read-outs stand apart in the source and are kept apart here.

T1: Human TIGIT (SPR analyte, Example 7) (human, UniProt Q495A1 22-141, limits assumed)
T1 sequence (looked up): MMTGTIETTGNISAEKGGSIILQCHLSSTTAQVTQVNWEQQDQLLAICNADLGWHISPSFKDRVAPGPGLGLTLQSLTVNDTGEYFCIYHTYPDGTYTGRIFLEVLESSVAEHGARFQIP

T2: histidine-tagged (His-Tag) human TIGIT protein (huTIGIT, ACRO Biosystems, #TIT-H52H3) (human, UniProt Q495A1 22-141)
T2 construct: Bought reagent; not shown: His tag
T2 sequence (looked up): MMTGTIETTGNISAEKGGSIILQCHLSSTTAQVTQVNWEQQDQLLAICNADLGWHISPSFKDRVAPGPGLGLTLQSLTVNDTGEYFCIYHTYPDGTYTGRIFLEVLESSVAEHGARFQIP

T3: human TIGIT on CHOK1-huTIGIT-2A3 cells (human, UniProt Q495A1 22-244)
T3 construct: whole, on cells; also called cells expressing the human TIGIT
T3 sequence (looked up): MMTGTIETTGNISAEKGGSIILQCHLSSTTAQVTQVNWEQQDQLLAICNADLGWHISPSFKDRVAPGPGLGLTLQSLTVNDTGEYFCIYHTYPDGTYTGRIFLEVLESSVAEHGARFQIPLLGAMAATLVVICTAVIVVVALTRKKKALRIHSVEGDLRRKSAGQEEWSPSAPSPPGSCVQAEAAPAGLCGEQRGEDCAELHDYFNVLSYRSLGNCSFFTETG

T4: human TIGIT (hybridoma screening, Table 1) (human, UniProt Q495A1 22-141, limits assumed)
T4 sequence (looked up): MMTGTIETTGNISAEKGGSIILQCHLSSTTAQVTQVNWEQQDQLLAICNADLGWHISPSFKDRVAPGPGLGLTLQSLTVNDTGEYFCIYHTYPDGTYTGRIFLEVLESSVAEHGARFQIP


Legend:
[1] = target: T1, Human TIGIT (SPR analyte, Example 7); assay: SPR (Biacore 8K), antibody captured by anti-human chip, antigen analyte, 1:1 model
Procedure: (§1) The Anti-Human Capture-CMS chip (GE, #BR-1005-30) was prepared according to the method for conjugating the Human Antibody Capture Kit (GE, #BR-1008-39) to the Amino Conjugation Kit (GE, BR-1000-50).

[2] = target: T2, histidine-tagged (His-Tag) human TIGIT …; assay: SPR (Biacore 8K), antibody captured on Protein A chip, huTIGIT-His analyte, 1:1 model
Procedure: This test determined the antigen-antibody binding kinetics and affinity by using an SPR method. BIOCORE (GE, #Biacore 8K) was used. […] An antibody sample was diluted using an equilibration buffer to an experimental working concentration, and sealed at 2-8° C. for later use. The antigen, namely, the histidine-tagged (His-Tag) human TIGIT protein (huTIGIT, ACRO Biosystems, #TIT-H52H3), was diluted with an equilibration buffer HBS-EP (10×) (GE, #BR-1006-69). Starting at 20 nM, the antigen was diluted by 2.5-fold for 5 concentration gradients, and 2 replications were set up for zero concentration (i.e., the equilibration buffer) and the lowest concentration. The chip was regenerated with pH1.5 glycine solution (GE, #BR100354).

[3] = target: T1, Human TIGIT (SPR analyte, Example 7); assay: SPR (Biacore 8K), antibody captured by anti-human chip, antigen analyte, 1:1 model; remark: listed apart in the source
Procedure: as §1

[4] = target: T3, human TIGIT on CHOK1-huTIGIT-2A3 cells; assay: flow cytometry competition with huCD155-moFc on CHOK1-huTIGIT-2A3 cells
Procedure: After reaction, the 96-well U-shaped plate was resuspended with 1% BSA/PBS, centrifuged (300 g×3 min) to discard the supernatant, and washed once in such way; and Alexa488-goat anti-mouse-Fc (Jackson ImmunoResearch, #115-545-071) diluted at 1:300 was added to react for 15 min in the dark at room temperature. After reaction, the 96-well U-shaped plate was resuspended with 1% BSA/PBS, centrifuged (300 g×3 min) to discard the supernatant, washed three times in such a way, and finally resuspended with 100 μL of 1% BSA/PBS for each wall; and the fluorescence intensity of an FITC channel was detected with a flow cytometer (BD, #CantoII).

[5] = target: T3, human TIGIT on CHOK1-huTIGIT-2A3 cells; assay: flow cytometry on CHOK1-huTIGIT-2A3 cells
Procedure: All chimeric antibodies and humanized antibodies were diluted to 20 μg/ml with 1% BSA in PBS solution (1% BSA/PBS), were added to a 96-well U-shaped plate at 20 μL per well; and a negative control (with 1% BSA/PBS added only) was set up at the same time. The suspension of cells (CHOK1-huTIGIT-2A3, Huabo Biopharm) expressing human TIGIT during the logarithmic growth phase were centrifuged (1000 rpm×5 min) to discard the culture medium; and the cells were resuspended with 1% BSA/PBS until the density of viable cells was 1×10⁶/mL, and were added, at 20 μL (2×10⁴ cells) per well, to the 96-well U-shaped plate with the anti-TIGIT antibody to react for 30 min at room temperature. After reaction, the 96-well U-shaped plate was resuspended with 1% BSA/PBS, centrifuged (300 g×3 min) to discard the supernatant, and washed once in such a way; and PE-goat anti-human-Fc (Jackson ImmunoResearch, #109-115-098) diluted at 1:200 was added to react for 15 min in the dark at room temperature. After reaction, the 96-well U-shaped plate was resuspended with 1% BSA/PBS, centrifuged (300 g×3 min) to discard the supernatant, washed three times in such a way, and finally resuspended with 100 μL of 1% BSA/PBS for each wall; and the fluorescence intensity of a PE channel was detected with a flow cytometer (BD, #CantoII).

[6] = target: TIGIT on Jurkat-TIGIT-22G8 cells; assay: cell-based or functional assay
[7] = target: Human PD-L1 (SPR analyte, Example 7) (human, UniProt Q9NZQ7 19-238, limits assumed); assay: SPR (Biacore 8K), antibody captured by anti-human chip, antigen analyte, 1:1 model
Procedure: as §1

[8] = target: PD-L1 on CHO-K1-0S8-PD-L1-8D6 cells; assay: cell-based or functional assay
[9] = target: T4, human TIGIT (hybridoma screening, Table …); assay: Biacore (SPR), hybridoma screening

Chain of Human PD-L1 (SPR analyte, Example 7) (Q9NZQ7 19-238 limits assumed): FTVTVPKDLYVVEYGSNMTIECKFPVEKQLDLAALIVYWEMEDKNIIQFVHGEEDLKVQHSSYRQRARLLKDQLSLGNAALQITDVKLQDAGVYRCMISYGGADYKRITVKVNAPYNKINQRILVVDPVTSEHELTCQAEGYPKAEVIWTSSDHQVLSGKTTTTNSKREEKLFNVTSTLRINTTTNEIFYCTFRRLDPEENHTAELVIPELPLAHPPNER
Chain of PD-L1 on CHO-K1-0S8-PD-L1-8D6 cells (Q9NZQ7 whole entry): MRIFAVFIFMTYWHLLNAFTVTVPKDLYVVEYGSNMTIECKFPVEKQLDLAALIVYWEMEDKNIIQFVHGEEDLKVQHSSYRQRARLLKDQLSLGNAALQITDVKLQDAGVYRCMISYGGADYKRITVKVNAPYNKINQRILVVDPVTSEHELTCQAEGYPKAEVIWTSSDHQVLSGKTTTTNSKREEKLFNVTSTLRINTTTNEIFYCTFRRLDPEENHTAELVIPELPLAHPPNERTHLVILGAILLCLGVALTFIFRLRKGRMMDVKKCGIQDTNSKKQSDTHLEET

| Kd [1] [pM] | koff [1] [s⁻¹] | kon [1] [M⁻¹ s⁻¹] | Kd [2] [pM] | koff [2] [s⁻¹] | kon [2] [M⁻¹ s⁻¹] | Kd [3] [pM] | koff [3] [s⁻¹] | kon [3] [M⁻¹ s⁻¹] | IC50 [4] [µg/mL] | EC50 [5] [µg/mL] | EC50 (nM), IL2 secretion of Jurkat-TIGIT-22G8 cells with PHA and CD155 [6] [nM] | Kd [7] [pM] | koff [7] [s⁻¹] | kon [7] [M⁻¹ s⁻¹] | EC50 (nM), luciferase reporter, Jurkat-NFAT-PD-1-5B8 cells with CHO-K1-0S8-PD-L1-8D6 cells [8] [nM] | Kd [9] [pM] | Binder |
| --- | --- | --- | --- | --- | --- | --- | --- | --- | --- | --- | --- | --- | --- | --- | --- | --- | --- |
| 34.5 | 0.000167 | 4.82e+06 | 58.3 | 0.000185 | 3.17e+06 | 34.6 | 0.000175 | 5.07e+06 | 0.0573 | 0.0466 | 5.82 |  |  |  |  |  | HB0030 (antibody, human IgG1, kappa, V domains shown, Humanized anti-TIGIT IgG1; also called 900461; TIGIT parental monoclonal antibody) VH: QVQLQESGPGLVKPSETLSLTCTVSGYSITSDYAWIWIRQPPGKGLEWIGYITSSGSTYYNPSLKSRVTFSVDTSKNQFSLKLSSVTAADTATYYCARLDFGNYGGAMDYWGQGTLVTVSS VL: DIQMTQSPSSLSASVGDRVTITCRASQHVSTAVNWYQQKPGKAPKLLIYSASYLYSGVPSRFSGSRSGTDFTLTISSLQPEDFATYYCQQHYITPYTFGQGTKLEIKR |
| 75.1 | 9.11e-05 | 1.21e+06 |  |  |  |  |  |  |  |  |  | 2790 | 0.00057 | 204000 | 2.09 |  | 900692 (bispecific antibody, human IgG1, kappa, also called PD-L1-IgG-TIGIT-scFv) heavy: not shown light: DVVMTQTPLSLSVTPGQPASISCKSSQSLANSYGNTYLSWYLHKPGQSPQLLIYGISNRFSGVPDRFSGSGSGTDFTLKISRVEAEDVGVYYCLQGTHQPPTFGQGTKLEIKRTVAAPSVFIFPPSDEQLKSGTASVVCLLNNFYPREAKVQWKVDNALQSGNSQESVTEQDSKDSTYSLSSTLTLSKADYEKHKVYACEVTHQGLSSPVTKSFNRGEC |
| 86.3 | 8.03e-05 | 930000 |  |  |  |  |  |  |  |  |  | 2270 | 0.000498 | 219000 | 1.98 |  | 900693 (bispecific antibody, human IgG1, kappa, also called PD-L1-IgG-TIGIT-scFv) heavy: not shown light: DVVMTQTPLSLSVTPGQPASISCKSSQSLANSYGNTYLSWYLHKPGQSPQLLIYGISNRFSGVPDRFSGSGSGTDFTLKISRVEAEDVGVYYCLQGTHQPPTFGQGTKLEIKRTVAAPSVFIFPPSDEQLKSGTASVVCLLNNFYPREAKVQWKVDNALQSGNSQESVTEQDSKDSTYSLSSTLTLSKADYEKHKVYACEVTHQGLSSPVTKSFNRGEC |
|  |  |  |  |  |  |  |  |  |  |  |  |  |  |  |  | 13.9 | B3/29F6 (antibody, V domains shown, Mouse hybridoma antibody) VH: DVQLQESGPGLVKPSQSLSLTCTVTGYSITSDYAWIWIRQFPGNKVEWMGYITSSGSTSYNPSLKSRISFTRDTSKNQFFLQLTSVTTEDTATYYCARLDFGNYGGAMDYWGQGTSVTVSS VL: DIVMTQSHKFMSTSIGDRVSITCKASQHVSTAVAWYQQKPGQSPKLLIYSASYRYTGVPDRFTGSRSGTDFTFTISSVQAEDLAVYYCQQHYITPYTFGGGTKLEIK |
